Results on one molecule are retold here after article PMC2720063 (Biochemistry, 2009).

The assay deals with T1, Ror2(518–525) peptide (human).
T1 chain: REEFRHEA
Kind of assay: crystal structure.

B1: PFA1 Fab (Fab fragment of the monoclonal anti-Aβ antibody PFA1, Protofibril antibody 1) (Fab, V domains shown)
VH: QVTLKESGPGILKPSQTLSLTCSFSGFSLSTSGMGVGWIRQPSGKGLEWLAHIWWDDDRSYNPSLKSQLTISKDAARNQVFLRITSVDTADTATYYCVRRAHTTVLGDWFAYWGQGTLVTVSA
VL: DVLMTQTPLSLPVSLGDQASISCRSSQSIVHSNGNTYLEWYLQKPGQSPKLLIYKVSNRFSGVPDRFSGSGSGTDFTLKISRVEAEDLGVYYCFQGSHVPLTFGAGTKLELK
For the molecule B1, the binding result was “binds”.
